The target of one experiment is T1, glucocorticoid receptor (Mesocricetus auratus, UniProt A0A1U8BQ22).
T1 construct: endogenous in cells; host or cells: SHM (Syrian hamster myocyte) cells
T1 sequence (A0A1U8BQ22 1-774): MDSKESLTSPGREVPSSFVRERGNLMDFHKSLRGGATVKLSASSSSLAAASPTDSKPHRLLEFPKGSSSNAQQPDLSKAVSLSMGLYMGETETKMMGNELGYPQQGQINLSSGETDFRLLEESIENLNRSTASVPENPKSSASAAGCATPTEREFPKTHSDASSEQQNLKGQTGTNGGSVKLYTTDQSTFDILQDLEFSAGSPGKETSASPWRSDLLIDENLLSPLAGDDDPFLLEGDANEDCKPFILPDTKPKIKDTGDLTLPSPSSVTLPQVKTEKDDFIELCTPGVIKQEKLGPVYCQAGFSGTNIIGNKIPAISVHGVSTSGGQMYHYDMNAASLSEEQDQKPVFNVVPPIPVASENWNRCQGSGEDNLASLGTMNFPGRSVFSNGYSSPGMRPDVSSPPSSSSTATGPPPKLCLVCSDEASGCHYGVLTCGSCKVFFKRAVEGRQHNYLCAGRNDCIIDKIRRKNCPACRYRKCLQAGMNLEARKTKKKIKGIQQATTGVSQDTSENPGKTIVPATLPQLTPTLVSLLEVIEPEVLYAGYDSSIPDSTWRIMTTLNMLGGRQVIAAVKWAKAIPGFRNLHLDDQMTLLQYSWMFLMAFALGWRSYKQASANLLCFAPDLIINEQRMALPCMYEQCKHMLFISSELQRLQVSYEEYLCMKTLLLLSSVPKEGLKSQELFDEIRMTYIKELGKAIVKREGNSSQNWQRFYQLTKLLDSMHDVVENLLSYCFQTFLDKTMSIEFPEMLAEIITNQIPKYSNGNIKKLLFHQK
Nature of the experiment: Glucocorticoid receptor transactivation in SHM cells, MMTV-Luc reporter. It is filed as cell-based. The following applies: 1 nM Dex. The procedure: Hamster smooth muscle cells (SHM) were transiently transfected with PSF-A expression vector together with a MMTV-Luc reporter vector. Cells were treated with either vehicle or 1 nM Dex for at least 24 hours. Luciferase activities were measured and normalized by β-galactosidase acitvity. Data shown in FIG. 13 are the mean of three separate experiments performed in triplicate ±S.E. Note: the empty vector pcDNA3 was added to the DNA mixture to ensure that the amounts of CMV promoter in all the transfection assays are equal.

For experiment [1], the target named is T2, PR (Homo sapiens, UniProt P06401).
T2 construct: made in house; host or cells: E. coli BL21(DE3)pLysS (GST-PR); rabbit reticulocyte lysate (35S His-PSF)
T2 sequence (P06401 556-650): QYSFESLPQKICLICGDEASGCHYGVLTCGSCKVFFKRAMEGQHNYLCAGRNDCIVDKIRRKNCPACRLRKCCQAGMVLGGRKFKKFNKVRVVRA
Nature of the experiment: GST in vitro pulldown assay with 35S-labeled PSF and GST-PR fusion proteins. The following applies: 35S-labeled PSF. It is filed as binding. The procedure:
(§1) FIG. 3. Mapping PSF and PR interaction site. (A) GST or GST-PR fusion proteins bound to glutathione-sepharose beads were incubated with ^35S-labeled PSF and binding of PSF was assessed by autoradiography. (B) GST or GST-PSF fusion proteins bound to glutathione-sepharose beads were incubated with ^35S-labeled PRB and binding of PRB was assessed by autoradiography. Input represents 10% of the material used for each sample in A and B. (C) GST-PSF fusion proteins used in assay B were separated on SDS gel and stained with commassie blue.
(§2) For immunoprecipitation of the endogenous PR and PSF, T47D cells cultured in 150 mm dishes were lysed in 800 μl NETN buffer containing 150 mM NaCl plus protease inhibitor cocktail. Cell lysate were then incubated with 5 μg of PR or PSF, or control mouse IgG at 4° C. overnight, followed by the addition of 30 μl of protein A/G PLUS-agarose beads (Santa Cruz) for another two hours at 4° C. Resins were washed with NETN containing 250 mM NaCl and eluted with 1×Laemmli buffer. […] Gels were treated with Enhancer (NEN, Boston, US) dried and analyzed by autoradiography. • Cell culture and transient transfection: SHM cells and 293T cells were maintained in DMEM plus 5% FCS (Sigma) as described before (22). […] Luciferase activity was determined by using the luciferin reagent (Promega) according to manufacture's protocol. […]

Experiment [2] relates to PR. Described as above. It is filed as binding. The following applies: 35S-labeled PSF. The procedure: as §1, §2

B1: polypyrimidine tract binding protein-associated splicing factor (protein)
chain: MSRDRFRSRGGGGGGFHRRGGGGGRGGLHDFRSPPPGMGLNQNRGPMGPGPGQSGPKPPIPPPPPHQQQQQPPPQQPPPQQPPPHQPPPHPQPHQQQQPPPPPQDSSKPVVAQGPGPAPGVGSAPPASSSAPPATPPTSGAPPGSGPGPTPTPPPAVTSAPPGAPPPTPPSSGVPTTPPQAGGPPPPPAAVPGPGPGPKQGPGPGGPKGGKMPGGPKPGGGPGLSTPGGHPKPPHRGGGEPRGGRQHHPPYHQQHHQGPPPGGPGGRSEEKISDSEGFKANLSLLRRPGEKTYTQRCRLFVGNLPADITEDEFKRLFAKYGEPGEVFINKGKGFGFIKLESRALAEIAKAELDDTPMRGRQLRVRFATHAAALSVRNLSPYVSNELLEEAFSQFGPIERAVVIVDDRGRSTGKGIVEFASKPAARKAFERCSEGVFLLTTTPRPVIVEPLEQLDDEDGLPEKLAQKNPMYQKERETPPRFAQHGTFEYEYSQRWKSLDEMEKQQREQVEKNMKDAKDKLESEMEDAYHEHQANLLRQDLMRRQEELRRMEELHNQEMQKRKEMQLRQEEERRRREEEMMIRQREMEEQMRRQREESYSRMGYMDPRERDMRMGGGGAMNMGDPYGSGGQKFPPLGGGGGIGYEANPGVPPATMSGSMMGSDMRTERFGQGGAGPVGGQGPRGMGPGTPAGYGRGREEYEGPNKKPRF
notes: expressed from transfected His-PSF vector or in vitro translated
Consider B1, for which the “glucocorticoid receptor activation of the MMTV promoter” value with glucocorticoid receptor is on record as “blocks its activation of the MMTV promoter”. Further, in the experiment with PR [1], the “binding to GST-PR fusion proteins containing the DBD domain” value is reported as “bound strongly”. In the experiment with PR [2], the “binding to other segments of PR” value is “did not bind”.
